The labels stand for the following.
B1: ESRRA (parent)
chain: SLPLQDELAFAEDLVLDEEGARAA

In the supplement of paper PMC10567573 one finds protein stability index data, which are given here for 94 variants.
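Further: lentivirally expressed fusions sorted by FACS into six bins by GFP to DsRed ratio, PSI derived from sequencing read proportions per bin multiplied by bin number.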

The variants in the series derive from B1. The series can be described thus: protein stability index of a GFP-peptide fusion (GPS, HEK-293T) (PSI 1-6); higher = more stable. To be noted: c terminus: a fixed tail appended.
Take SLPLQDWLAFAEDLVLDEEGARAA: the protein stability index was 4.16.

For the variant SLPLQDILAFAEDLVLDEEGARAA, the protein stability index was determined as 2.46.

As to SLPLQDYLAFAEDLVLDEEGARAA, the protein stability index was determined as 3.88.

Consider SLPIQDELAFAEDLVLDEEGARAA, for which the protein stability index was 4.43.

SLPWQDELAFAEDLVLDEEGARAA: the protein stability index is 5.32.

SLPCQDELAFAEDLVLDEEGARAA: the protein stability index turned out to be 5.1.

As to SLPQQDELAFAEDLVLDEEGARAA, the protein stability index worked out at 5.64.

Consider SLPTQDELAFAEDLVLDEEGARAA, for which the protein stability index amounted to 5.43.

SLPYQDELAFAEDLVLDEEGARAA: the protein stability index is 5.26.

In the case of SLPGQDELAFAEDLVLDEEGARAA, the protein stability index worked out at 5.68.

Turning to SLPLQDELAFAEDLPLDEEGARAA, the protein stability index amounted to 5.37.

SLPLQDELAFAEDLTLDEEGARAA: the protein stability index is 5.28.

In the case of SLPLQDELAFAEDLYLDEEGARAA, the protein stability index was found to be 5.25.

Regarding SLPLQDELAFAEDLLLDEEGARAA, the protein stability index is 3.92.

Regarding SLPLQDELAFAEDLMLDEEGARAA, the protein stability index worked out at 4.79.

As for SLPLQDELAFAEDLALDEEGARAA, the protein stability index is 4.6.

With SLPLQDELAFAEDLWLDEEGARAA, the protein stability index was found to be 4.85.

For SLPLQDELAFAEDLVLDCEGARAA, the protein stability index was found to be 2.31.

For SLPLQDELAFAEDLVLDIEGARAA, the protein stability index was determined as 3.81.

Take SLPLQDELAFAEDLVLDREGARAA: the protein stability index was 4.03.

For SLPLQDELAFAEDLVLDKEGARAA, the protein stability index is 4.48.

Turning to SLPLQDELAFAEDLVLDFEGARAA, the protein stability index amounted to 3.24.

As to SLPLQDELAFAEDLVLDSEGARAA, the protein stability index worked out at 2.85.

SLPLQDELAFAEDLVLDHEGARAA: the protein stability index was found to be 2.56.

On to SLPLQDELAFAEDLVLDLEGARAA, for which the protein stability index stood at 3.11.

As for SLPLQDELAFAEDLVLDDEGARAA, the protein stability index was 4.8.

Regarding SLPLLDELAFAEDLVLDEEGARAA, the protein stability index turned out to be 3.02.

As to SLPLCDELAFAEDLVLDEEGARAA, the protein stability index was found to be 3.7.

For the variant SLPLHDELAFAEDLVLDEEGARAA, the protein stability index is 3.66.

In the case of SLPLYDELAFAEDLVLDEEGARAA, the protein stability index was found to be 2.96.

As to SLPLGDELAFAEDLVLDEEGARAA, the protein stability index was 4.43.

With SLPLPDELAFAEDLVLDEEGARAA, the protein stability index was 4.94.

Take SLPLADELAFAEDLVLDEEGARAA: the protein stability index is 3.25.

For SLPLQDELAFAEDLVLQEEGARAA, the protein stability index was determined as 3.31.

SLPLQDELAFAEDLVLLEEGARAA: the protein stability index was 2.71.

In the case of SLPLQDELAFAEDLVLNEEGARAA, the protein stability index amounted to 2.86.

For SLPLQDELAFAEDLVLWEEGARAA, the protein stability index was determined as 2.62.

For the variant SLPLQDELAFAEDLVLREEGARAA, the protein stability index came out at 3.13.

Consider SLPLQDELAFAEDLVLGEEGARAA, for which the protein stability index was determined as 2.15.

As for SLPLQDELAFAEDLVLSEEGARAA, the protein stability index was determined as 2.69.

In the case of SLPLQDELAFAEDLVPDEEGARAA, the protein stability index amounted to 5.75.

In the case of SLPLQDELAFAEDLVIDEEGARAA, the protein stability index stood at 3.88.

Turning to SLPLQDELAFAEDLVGDEEGARAA, the protein stability index amounted to 4.85.

With SLPLQDELAFAEDLVFDEEGARAA, the protein stability index was 3.7.

Take SLPLQDELAFAEDLVCDEEGARAA: the protein stability index stood at 3.63.

SLPLQDELAFAEDLVNDEEGARAA: the protein stability index is 4.59.

Consider SLPLQDELAFAEDLVMDEEGARAA, for which the protein stability index came to 3.

With SLPLQDELAFAEDLVTDEEGARAA, the protein stability index was 4.72.

Regarding SLPLQDELAFAEDLVLDEETARAA, the protein stability index was found to be 4.05.

For SLPLQDELAFAEDLVLDEECARAA, the protein stability index was found to be 2.6.

Consider SLPLQDELAFAEDLVLDEEWARAA, for which the protein stability index stood at 2.67.

As to SLPLQDELAFAEDLVLDEEVARAA, the protein stability index came out at 4.

As to SLPLQDELAFAEDLVLDEEKARAA, the protein stability index is 3.4.

Turning to SLPLQDELAFAEDLVLDEEHARAA, the protein stability index was found to be 2.9.

As for SLPLQDELAFAEDLVLDEEMARAA, the protein stability index was 2.51.

Turning to SLPLQDELAFAEDLVLDEERARAA, the protein stability index was 3.38.

As to SLPLQDELAFAEDLVLDEEDARAA, the protein stability index came out at 3.46.

Consider SLPLQDELAFAEDLVLDEELARAA, for which the protein stability index came to 3.04.

For SHPLQDELAFAEDLVLDEEGARAA, the protein stability index was 2.78.

For the variant SFPLQDELAFAEDLVLDEEGARAA, the protein stability index turned out to be 3.06.

With SWPLQDELAFAEDLVLDEEGARAA, the protein stability index was 2.69.

With SCPLQDELAFAEDLVLDEEGARAA, the protein stability index turned out to be 2.32.

As to SMPLQDELAFAEDLVLDEEGARAA, the protein stability index was 3.48.

SVPLQDELAFAEDLVLDEEGARAA: the protein stability index came out at 3.26.

Turning to SGPLQDELAFAEDLVLDEEGARAA, the protein stability index stood at 4.81.

On to SQPLQDELAFAEDLVLDEEGARAA, for which the protein stability index came out at 3.95.

For the variant SLPLQDELAFAEDLVLDEEGARAQ, the protein stability index came out at 3.05.

On to SLPLQDELAFAEDLVLDEEGARAF, for which the protein stability index is 2.14.

SLPLQDELAFAEDLVLDEEGARAC: the protein stability index turned out to be 2.94.

Regarding SLPLQDELAFAEDLVLDEEGARAV, the protein stability index is 3.06.

Consider SLPLQDELAFAEDLVLDEEGARAM, for which the protein stability index is 2.97.

Regarding SLPLQDELAFAEDLVLDEEGARAR, the protein stability index is 2.8.

Regarding SLPLQDELAPAEDLVLDEEGARAA, the protein stability index worked out at 5.69.

In the case of SLPLQDELAWAEDLVLDEEGARAA, the protein stability index amounted to 2.96.

For SLPLQDELARAEDLVLDEEGARAA, the protein stability index came out at 3.57.

On to SLPLQDELAMAEDLVLDEEGARAA, for which the protein stability index worked out at 2.52.

As for SLPLQDELATAEDLVLDEEGARAA, the protein stability index was found to be 3.77.

SLPLQNELAFAEDLVLDEEGARAA: the protein stability index was determined as 2.92.

Turning to SLPLQHELAFAEDLVLDEEGARAA, the protein stability index came to 2.45.

In the case of SLPLQIELAFAEDLVLDEEGARAA, the protein stability index amounted to 2.26.

Turning to SLPLQWELAFAEDLVLDEEGARAA, the protein stability index came out at 2.78.

With SLPLQAELAFAEDLVLDEEGARAA, the protein stability index was found to be 3.27.

Consider SLPLQGELAFAEDLVLDEEGARAA, for which the protein stability index is 3.37.

On to SLPLQTELAFAEDLVLDEEGARAA, for which the protein stability index came out at 2.89.

On to SLPLQFELAFAEDLVLDEEGARAA, for which the protein stability index is 2.73.

For the variant SLPLQQELAFAEDLVLDEEGARAA, the protein stability index worked out at 2.91.

Take SLPLQVELAFAEDLVLDEEGARAA: the protein stability index was 2.5.

On to SLPLQMELAFAEDLVLDEEGARAA, for which the protein stability index came out at 3.77.

Consider SLPLQDELAFAEDYVLDEEGARAA, for which the protein stability index is 5.32.

With SLPLQDELAFAEDIVLDEEGARAA, the protein stability index worked out at 4.3.

Consider SLPLQDELAFAEDKVLDEEGARAA, for which the protein stability index is 4.89.

For the variant SLPLQDELAFAEDHVLDEEGARAA, the protein stability index came out at 5.42.

Consider SLPLQDELAFAEDDVLDEEGARAA, for which the protein stability index was 5.5.

In the case of SLPLQDELAFAEDRVLDEEGARAA, the protein stability index stood at 4.2.
